Protein production data for 21 sequences are collected here from a protein production outcome set (Wang et al. 2014).
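Also: failed if final PepcDB status was selected cloned or expressed and not failed if soluble or beyond.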

The data set is described as follows: label from the status in PepcDB records.
With “MQKIPGYENTNSEVPDKKYWLYGLMIVFFALAFRLFELGERVLHHDESIHASFTLKLLEHGEYSYDPAYHGPFLFHSTAAVFHFLGITDTTSRLVPVLFGVATILLLFLLKKELGKNGVLWSMFLLAFSPSMVYFSRFFRNDMIIIFCTLAAVTGAFRYLDSIHSLKRYPYLVLAASSLAVAVSSKENAYIILAVFGAYAGLGFLYWICSDWKKENMGLKETLRSKTSALLPYLPEIILSGALSVFIIMFFYSSAFRYDVSLFSIVERAFNHWMEMHSIERIGGPFYYYIPILLRYEIPVVLFGAAGFFYFLFNRVRNKGQNYSFFLFLCYWALTSLLLYSYIQEKVPWLVVHIVLPFGLLAGAFLGEVFSKKNKDGQPKKPDYPGKIRALLTVILVLTLLVFISQCISVNYYRSMEDEELITYTQASPDIRILMEKIEGFNESPDTLRIYVIDQYQLYWPLPWYLRDYERAAYSSKPPSSSKYDAIIVPISCDMYRELSEEEYSSYNFTLRPGRDFTLYYNNKLEQQ”, the protein production entry is reported as “failed”.

Regarding “MGKKELKRGLVVDREAQMIGVYLFEDGKTYRGIPRGKVLKKTKIYAGDYVWGEVVDPNTFAIEEVEERKNLLIRPKVANVDRVIIVETLKMPEFNNYLLDNMLVVYEYFKVEPVIVFNKIDLLNEEEKKELERWISIYRDAGYDVLKVSAKTGEGIDELVDYLEGFICILAGPSGVGKSSILSRLTGEELRTQEVSEKTERGRHTTTGVRLIPFGKGSFVGDTPGFSKVEATMFVKPREVRNYFREFLRYQCKYPDCTHTNEPGCAVKEAVKNGEISCERYKSYLKIIKVYLEEIKELCRED”, the protein production result is on record as “not failed”. To “MTFSANFSLVLPEVVLAIAALVLLVAGTFRGKVGAIFTLAAVASLIAAAATAVLGPKGVAFGGVYVADAAATYAKVAIYLSSAVAVVLGDRWLAQRGDQKFEYAVLVILAALGMGVTASAGDLISLYIGVELQSLALYVLAAMRRDDAKSSEAGLKYFVLGALSSGLLLYGSSLIYGFTGSTHFSQIALAAAHGGSHGVGLLFGLVFVICGLAFKVSAAPFHMWTPDVYEGAPTPVVGFFSAAPKLAAMMMFARVLGDAFPASEEQWRQILVIAALLSVFVGAFAGLAQSNLKRLWAYSSIANVGYALLGVAAGGEVGLQSMLIFMTLYMVDVTGFFACLQALNRDGKPMETIQDMAGLVKQRPGIALAMTAFSLSALGLPPFSGFWAKYFVFKAAMGSGDVMLQWAAVIGLVGSVVAAFYYLRLIKAMWFDDAAGAVDAPSPSARAVGFAAAIFSFPIVLVALVWLEPAAKAAAAAFGHA” belongs “failed”; to “MAKLRHSRFQARKWSTLMLVLFMLFMLTIVLLMLLAFGVFSLPINNDESSPIDLSYFRRAATERSEGLGKRGDQWTEVLSWEPRAFVYHNFLSKEECEYLISLAKPHMVKSTVVDSETGKSKDSRVRTSSGTFLRRGRDKIIKTIEKRIADYTFIPADHGEGLQVLHYEAGQKYEPHYDYFVDEFNTKNGGQRMATMLMYLSDVEEGGETVFPAANMNFSSVPWYNELSECGKKGLSVKPRMGDALLFWSMRPDATLDPTSLHGGCPVIRGNKWSSTKWMHVGEYKI”, “failed”; to “MARVLVSSPSSFFGSPLIKPSSSLRHSGVGGGGTAQFLPYRSNNNKLFTTSTTVRFSLNEIPPFHGLDSSVDIGAIFTRAESLLYTIADAAVVGADSVVTTDSSAVQKSGGWFGFISDAMELVLKILKDGLSAVHVPYAYGFAIILLTIIVKAATYPLTKQQVESTLAMQNLQPKIKAIQQRYAGNQERIQLETSRLYKQAGVNPLAGCLPTLATIPVWIGLYQALSNVANEGLFTEGFFWIPSLGGPTSIAARQSGSGISWLFPFVDGHPPLGWYDTVAYLVLPVLLIASQYVSMEIMKPPQTDDPAQKNTLLVFKFLPLMIGYFALSVPSGLSIYWLTNNVLSTAQQVYLRKLGGAKPNMDENASKIISAGRAKRSIAQPDDAGERFRQLKEQEKRSKKNKAVAKDTVELVEESQSESEEGSDDEEEEAREGALASSTTSKPLPEVGQRRSKRSKRKRTV”, “failed”. To “MKEKVQSPELRFDGFTDGWEQRKFADFIDVKSGKDYKHLNSGSIPVYGTGGYMLSVDRALSDIDAIGFGRKGTIDKPYLLKAPFWTVDTFFYAVPKQNIDLQFSLSIF” belongs “failed”; to “MRKFIISFCCYVFFIFTLAAQDKAPHYTVIVSLDAFRWDYPAMYDTPNLNQMAREGVKATMLPSYPASTFPNHYTLATGLVPDHNGIINNTFWDVKRRRQYSMGDPATRNNPDYYLGEPIWITAQKQGVKTGNVYWVGSDIAIKGGYPTYYREYAEKPRLTFEQRVDSTIALLEKPEAERPRLVMLYFEEPDGVTHHHGPRSVEAAAIIHRMDSLVGMLRQGIASLPFGKDVNLIVTADHGMTEISDDRVVDMNKYLRPEWCEAVDGRTPTSIFTKPEYRDSVYNALKDVPHIHVWKKEEIPAELNYGSSDRIGDIVVAPELGWQFTDVPRALKGAHGYFPQSPDMQVMFRACGPDFKAGYESKGFVNVDIYPLLAHLLKITPEKTDGQFERIKDILKDVSFLEHHHHHH”, “failed”. As to “MQLITFLHEFIKHPKHTGAIAPSSKILAKKMVDVIDFNKAKCIVELGPGTGVFTKEIMKRKKKETIFLLIEINEVFFKELKRKFKDEQNVIVVHGSAENIKKYMGEHNIECIDYVLSGLPFTSLPEEVSKRILNNAMEAIHENGEFITFQYSLVKKGFIQHFFPEITLEKVWLNFPPAYVFSCKKELRRAYA”, the protein production entry is listed as “failed”. For “MEIKYLSLCILAGILFVSQVNASENNGKDDVKYAALTQKDLDALPVEKRASVLDELGFIHEYGIGVPMNRERALQYYKQACELGGNYGCYNVKYAYQYGDGVAKDSAQANKYAKKMNLDNLLIEQEYIDKFSQGIYAAKVLADTDKSQRPEFINALFNLLNNRPESDALFFSRIGFNQEKTFRLATLWVQDGDPQMDYQLGLLTLNDFSGHYVDEPYKARPASLKWFRAATEKGVVEAQSLLGGIYSGGEGDEWGIKPDIQEAQKWYGQAAEQGDSDAQIALGKIYYSGATGRTDYAKALALFTQVENDGTNSRSTMPLSWMYYNGLGTAPDCDKAWSYYKKASRYVGKKVEEKIFLSKCAADIQSRKNNADALPRVTLKKASIFSRGITAKPKECALIFQIGTDKIRNMANLHITLELKNADGMATEETLMIPPFGLNTLGIDMQNHDVDPLVTPYDLPLYTQDFCHGIGDIHFTLKSATATINGKNVDLLKADSVRFLDKE” the value was “failed”; for “MPVGIIGHYRCGEHNMGEHHPENGKRLTAISDQLIRSGLDYVVRQFDSKPIDKSLLALAHTQEHIDFVFDNAPNEGEENFTVGEDSVMNEKTLTSIMYSAGAAVDAVDLVMEGTLGAAFCATRPPGHHAEHDKGMGFCFFNNVAVAAAYAKQKYGLKRVAIVDFDVHHGNGTEDIITNHFNATPEDDKGYLFCSSYQYPLYPFEIQESDTPPIINTPLAATTKGEQFREKLTAHWLPALHKFKPELILISAGFDAHIEDEMSHVSLTEADYRWITDELKIIAEEYGKGRIVSVLEGGYAPSALGRSVVAHVNGLIGN”, “failed”.

In the case of “MSMNNSKQLVSPAAALLSNTTCQTENRLSVFFSVIFMTVGILSNSLAIAILMKAYQRFRQKSKASFLLLASGLVITDFFGHLINGAIAVFVYASDKEWIRFDQSNVLCSIFGICMVFSGLCPLLLGSVMAIERCIGVTKPIFHSTKITSKHVKMMLSGVCLFAVFIALLPILGHRDYKIQASRTWCFYNTEDIKDWEDRFYLLLFSFLGLLALGVSLLCNAITGITLLRVKFKSQQHRQGRSHHLEMVIQLLAIMCVSCICWSPFLGYRIILNGKEKYKVYEEQSDFLHRLQWPTLE”, the protein production result is reported as “failed”. To “MKAVRVHILGSGGREHAIGWAFAKQGYEVHFYPGNAGTKRDGTNHPYEGEKTLKAIPEEDIVIPGSEEFLVEGVSNWRSNVFGPVKEVARLEGSKVYAKRFMKKYGIRTARFEVAETPEELREKIKKFSPPYVIKADGLARGKGVLILDSKEETIEKGSKLIIGELIKGVKGPVVIDEFLAGNELSAMAVVNGRNFVILPFVRDYKRLMDGDRGPNTGGMGSWGPVEIPSDTIKKIEELFDKTLWGVEKEGYAYRGFLYLGLMLHDGDPYILEYNVRLGDPETEVIVTLNPEGFVNAVLEGYRGGKMEPVEPRGFAVDVVLAARGYPDAPEKGKEITLPEEGLIFFAGVAEKDGKLVTNGGRVLHCMGTGETKEEARRKAYELAEKVHFEGKTYRRDIAL” belongs “not failed”.

As for “MSVNLGSLPRQRSLLSRLRDLWPLWLFLALLASALHYIVRYWPQIVLQSAIWQKSLHQQMSHLLQMVEQQPHQAGLSLMMFSLVYGVLHAVGPGHGKVVIMTYLATHPSKLKSSLKLTLAASLVQGLMAIALVTVVLGILQLSSRTLHNSSFWMEKGSFVLVAGLGLLLCFRALKQLYIVLVRQPKPATILRVIPLPVTPLNVAAHGRMTLSPIYAPSHSLHQHDVDCGCGHRHLPSNEELERGSSWHTRLMIVLAMGMRPCSGAIMVLLFSKVIGVYLWGVASALVMAAGTAITISALAVLVFYCRRVIERLGANRASPVWQRATFSLLSFAGGMILVGSGILLYLSAQPAMMGGIRPFSG”, the protein production entry is reported as “failed”. In the case of “MTEEQLQALRAAISVCRRCRDEPARGEGHRLPHEPRPVAVLSASARILIAGQAPGLRVHESGLPFNDASGDRLRQWLSVDRAAFYDQRNFAIVPMGFCFPGYDRHGSDLPPRSECAPLWRQRAMDAMPQIELVLAVGHYAQRWHLGTDCPKSMTETVRNWQRYAKRNSGISVLPLPHPSWRNTGWLRRHPWFEAELLPFLRERVQALTI”, the protein production result is recorded as “failed”.

Consider “MRILLATDGSPQARGAEALAEWLAYKLSAPLTVLFVVDTRLARIPELLDFGALTVPVPVLRTELERALALRGEAVLERVRQSALAAGVAVEAVLEEGVPHEAILRRARAADLLVLGRSGEAHGDGFGGLGSTADRVLRASPVPVLLAPGEPVELEGALLGYDASESAVRALHALAPLARALGLGVRVVSVHEDPARAEAWALEAEAYLRDHGVEASALVLGGDAADHLLRLQGPGDLLALGAPVRRLVFGSTAERVIRNAQGPVLTAR”, for which the protein production entry is reported as “failed”. In the case of “MFKKRLNKDKINDCYTWEEELPDGSYDMGFHGNLNHMEKGKSGYVTHKQLDKKLEVFKQDLLVELSEKFVTKEEFRAQGKQIKELQIEQKAQGKTLQLILEALQGINKRLDKLESKLEHHHHHH”, the protein production entry is “not failed”. For “GSHMPVPSFGEAMAYFAMVKRYLTSFPIDDRVQSHILHLEHDLVHVTRKNHARQAGVRGLGHQS” the value was “not failed”; for “MDRMWSPWRSAYVSEANDREPTDDESIFTALLREERDEENLILWRGEHVFVIMNRHPYNSGHLLILPYREVTQYDALNAPEQQALTAALDRCMGWLREAVSPDGFNVGMNLGRAAGAGIPDHLHAHVVPRWDGDTNFMATTANTKVLPEDLQTTYGKLRAAMAPDARDTTKPAAQKPSE”, “failed”. For “NRDSLFNDPNAPVLGNPEGDVTVVEFFDYNCPYCRRAMAEVQGLVDADPNVRLVYREWPILGEGSDFAARAALAARQQGKYEAFHWALMGMSGKANETGVLRIAREVGLDTEQLQRDMEAPEVTAHIAQSMALAQKLGFNGTPSFVVEDALVPGFVEQSQLQDAVDRARKAA” the value was “not failed”. “MRKFILYWALYGLIELIMYVWLFQVIGFWPLLFIQIASSAFGVFIFKRLGGNLFRNLRDGRTVAPYLLDSLCFFIAGFLLIIPGVITTILGLLIFIPFSRKLLKPKLTKWLGNQKKHTQYYYFDM”: the protein production result is recorded as “failed”. To “MSIYNSIGKQYSQTRVPDIRIVNAIINLLNLPKGSVIADIGAGTGGYSVALANQGLFVYAVEPSIVMRQQAVVHPQVEWFTGYAENLALPDKSVDGVISILAIHHFSHLEKSFQEMQRIIRDGTIVLLTFDIRLAQRIWLYDYFPFLWEDALRFLPLDEQINLLQENTKRRVEAIPFLLPHDLSDLFAAAAWRRPELYLKAEVRAGISSFALANQDLVEKGLELLTADLNNGEWIRKYGEIHHLQEIDIGYRFIYTTLDK” belongs “not failed”.
